Data as given in patent US20040146511A1.

What was measured:
[1] = molecular target: Recombinant human Factor IX (rhFIX, Genetics Institute) (human) (UniProt P00740); assay: titration microcalorimetry; 106 uM FIX injected into 2 uM mAb
human Factor IX (human) = human Factor IX (human) (UniProt P00740); assay: cell-based or functional assay
Sequence of human Factor IX (human) (P00740 47-461 limits assumed): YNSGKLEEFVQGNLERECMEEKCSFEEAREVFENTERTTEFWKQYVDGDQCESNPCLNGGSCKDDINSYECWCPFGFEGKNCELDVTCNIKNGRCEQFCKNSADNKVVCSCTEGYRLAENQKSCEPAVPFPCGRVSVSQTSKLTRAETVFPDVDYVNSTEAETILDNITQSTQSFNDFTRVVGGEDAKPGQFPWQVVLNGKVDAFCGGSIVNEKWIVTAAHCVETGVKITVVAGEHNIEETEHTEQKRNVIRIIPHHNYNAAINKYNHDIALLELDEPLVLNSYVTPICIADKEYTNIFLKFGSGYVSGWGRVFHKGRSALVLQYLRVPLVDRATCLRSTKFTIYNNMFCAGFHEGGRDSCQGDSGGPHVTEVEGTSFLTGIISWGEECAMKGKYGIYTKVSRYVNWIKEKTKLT

Sequence of Recombinant human Factor IX (rhFIX, Genetics Institute) (human) (P00740 47-461 limits assumed): as above

B1: humanized anti-Factor IX monoclonal antibody SB 249417 (antibody, V domains shown)
VH: QVQLVQSGSELKKPGASVKVSCKASGYTFTNYGMNWVRQAPGQGLKWMGWINTRNGKSTYVDDFKGRFVFSLDSSVSTAYLQISSLKADDTAVYYCTREGNMDGYFPFTYWGQGTLVTVSS
VL: QIVLTQSPSSLSASVGDRVTITCRASSSVNYMHWYQQKPGKAPKPWIYATSNLASGVPSRFSGSGSGTDYTFTISSLQPEDIATYYCQQWSINPRTFGQGTKVEIKR
- molar binding ratio (FIX per mAb) [1]: 2 FIX per mAb

B2: murine anti-Factor IX monoclonal antibody BC2 (antibody, from a related filing, mouse IgG2a, V domains shown)
VH: QIQLVQSGPELKKPGETVKISCKASGYTFTNYGMNWVKQAPGKGLKWMGWINTRNGKSTYVDDFKGRFAFSLESSASTANLQIDNLKDEDTATYFCTREGNMDGYFPFTYWGQGTLVTVSA
VL: QIVLSQSPAILSASPGEKVTMTCRASSSVNYMHWYQQKPGSSPKPWIYATSNLASGVPARFSGSGSGTSYSLTISRVEAEDAATYYCQQWSINPRTFGGGTKLEIKR
- aPTT at saturating concentrations (human Factor IX (human)): 90 s
- aPTTmax/aPTTnormal x 100 % (human Factor IX (human)): 350%
